T1: T. brucei pyridoxal kinase (TbPdxK) (Trypanosoma brucei, UniProt O15927)
T1 sequence (O15927 1-300): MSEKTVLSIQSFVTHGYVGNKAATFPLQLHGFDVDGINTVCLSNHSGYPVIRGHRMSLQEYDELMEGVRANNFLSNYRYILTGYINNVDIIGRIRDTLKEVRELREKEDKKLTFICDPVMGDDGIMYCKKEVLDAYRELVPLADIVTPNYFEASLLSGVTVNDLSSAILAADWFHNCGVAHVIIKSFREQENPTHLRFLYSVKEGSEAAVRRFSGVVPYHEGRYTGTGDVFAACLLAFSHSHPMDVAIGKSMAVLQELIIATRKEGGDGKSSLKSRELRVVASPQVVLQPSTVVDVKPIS

B1: T. brucei pyridoxal kinase (TbPdxK) (Trypanosoma brucei) (protein)
chain: T1 sequence (O15927 1-300)

How the values were obtained:
[1] = biological target: T1, T. brucei pyridoxal kinase (TbPdxK); experiment: coupled PK/LDH assay; format: biochemical; conditions: read-out: Km^app
purified protein [2] = substrate: Cc1ncc(CO)c(C=O)c1O; experiment: purified protein; format: biochemical, Trypanosoma brucei; conditions: ATP, Mg2+
purified protein [3] = substrate: Cc1ncc(CO)c(CN)c1O; experiment: purified protein; format: biochemical, Trypanosoma brucei; conditions: ATP, Mg2+
purified protein [4] = substrate: Cc1ncc(CO)c(CO)c1O; experiment: purified protein; format: biochemical, Trypanosoma brucei; conditions: ATP, Mg2+

Molecule | Km [1] [µM] | Km (purified protein [2]) [µM] | Km (purified protein [3]) [µM] | Km (purified protein [4]) [µM]
COCc1c(CO)cnc(C)c1O [GT, ginkgotoxin] | 46.6 ± 10.2 | – | – | –
B1 | – | 1.65 ± 0.14 | 59.4 ± 14.8 | 48.0 ± 12.7

Source: paper PMC3470933 (Molecular Microbiology, 2012)
